Results as given in patent US20050080234A1 (Takeda / Millennium, published 2005).
Changes are numbered by the printed parent chain. Like-named read-outs stand apart in the source and are kept apart here.

T1: wild-type mouse C140 receptor (mouse, UniProt P55086 32-399)
T1 sequence: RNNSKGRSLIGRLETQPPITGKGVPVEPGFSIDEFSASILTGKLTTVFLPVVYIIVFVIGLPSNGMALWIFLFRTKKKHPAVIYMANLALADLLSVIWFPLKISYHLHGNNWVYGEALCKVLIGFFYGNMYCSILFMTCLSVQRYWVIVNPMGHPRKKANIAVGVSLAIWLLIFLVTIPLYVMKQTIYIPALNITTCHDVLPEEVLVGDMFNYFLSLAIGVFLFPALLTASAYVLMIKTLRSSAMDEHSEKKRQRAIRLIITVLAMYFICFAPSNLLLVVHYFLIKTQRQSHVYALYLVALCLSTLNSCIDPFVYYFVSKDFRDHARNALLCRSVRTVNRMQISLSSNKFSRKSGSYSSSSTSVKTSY

T2: mouse C140 receptor mutant 35Arg (mouse, UniProt P55086 32-399)
T2 sequence: T1 sequence with S8R

T3: mouse C140 receptor mutant 35Pro (mouse, UniProt P55086 32-399)
T3 sequence: T1 sequence with S8P

T4: mouse C140 receptor mutant 35His (mouse, UniProt P55086 32-399)
T4 sequence: T1 sequence with S8H


Columns and labels:
Assay in all cases: cell-based or functional assay
[1] = target: T1, wild-type mouse C140 receptor
[2] = target: T2, mouse C140 receptor mutant 35Arg
[3] = target: T3, mouse C140 receptor mutant 35Pro
[4] = target: T4, mouse C140 receptor mutant 35His
[5] = target: T1, wild-type mouse C140 receptor; remark: listed apart in the source
[6] = target: T1, wild-type mouse C140 receptor; remark: listed apart in the source

Fold Increase in 45Ca [5]	Molecule	also measured
–	trypsin (enzyme)	Fold increase in 45Ca [1]: 6.6 fold; Fold increase in 45Ca [2]: 0 fold; Fold increase in 45Ca [3]: 0 fold; Fold increase in 45Ca [4]: 0 fold
0 fold	SLAGRL [peptide SLAGRL]	–
1.7 fold	SFFLRW [thrombin receptor agonist SFFLRW]	–
0 fold	SLIGAL [peptide SLIGAL]	–
4.3 fold	SLIARL [peptide SLIARL]	–
1.3 fold	ALIGRL [peptide ALIGRL]	–
0 fold	SAIGRL [peptide SAIGRL]	–
8.5 fold	SLIGRA [peptide SLIGRA]	–
15 fold	SLIGRL [agonist peptide SLIGRL]	Fold Increase in 45Ca [6]: 11 fold; Fold Increase in 45Ca [2]: 15 fold; Fold Increase in 45Ca [3]: 23 fold; Fold Increase in 45Ca [4]: 23 fold
